# In the nanobody polyreactivity screen of Harvey et al. (2022):
# Experiment: yeast display, Sf9 membrane polyspecificity reagent, FACS + sequencing; frameworks hold sequencing errors
# Method in brief: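 Galactose-induced (36–48 hours) yeast carrying a synthetic nanobody display library were exposed to 10% biotinylated, detergent-solubilized Sf9 membrane reagent at 4 °C for 1 hour. FACS followed streptavidin microbead enrichment, using low and high (top ~1%) gates for expression (anti-HA) and reagent binding (streptavidin). Colony PCR, MiSeq 2 × 250 sequencing and CDR-length filtering followed. Labels for polyreactivity reflect the gate of origin.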
row,Sequence,polyreactivity (PSR sort gate)
1,QVQLVESGGGLVQAGGSLRLSCAASGITFRYYAMGWYRQAPGKERELVATITRGGSTYYADSVKGRFTISRDNAKNTVYLQMNSLKPEDTADYYCAAAGQRYTYWVDYWGQGTQVTVSS,high polyreactivity
2,QVQLVESGGGLVQAGGSLRLSCAASGSNFGFYAMGWYRQAPGKERELVAAIDSGDSTNYADSVKGRFTISRDNAKNTVYLQMNSLKPEDTAVYYCNAEAWWYFWFDYWGQGTQVTVSS,low polyreactivity
3,QVQLVESGGGLVQAGGSLRLSCAASGSTFWPYALGWYRQAPVKERELVAAITNSGGSTYYADSVKGRFTISRDNAKNTVYLQMNSLKPEDTAVYYCAVRGVIYSYTPVNSYVFWGQGTQVTVSS,low polyreactivity
4,QVQLVESGGGLVQAGGSLRLSCAASGSTFTTNAMGWDRQAPGKERELVAAITWSVGSTYYADSVKGRFTISRDYAKNTVYLQMNSVKPEDNAVYYCAAYHPPGDTYEYWGQGTQVTVSS,low polyreactivity
5,QFQLVESGGGLVQAGGSLRLSCAASGSIFPNYAMGWYRQAPGKDRELVAVITQRGGRTYYADSVKGRFTISRDNAKNTVYLQMNSLKPEDTAVYYCAASYRGVPEYDSWGQGTQVTVSS,low polyreactivity
6,QVQLVESGGGLVQAGGSLRLSCAASGFTLYSYVMGWYRQAPGKERELVAAISRSGVSTHYADSVKGRFTISRDNAKNTVYLQMNSLKPEDTAVYYCNKVYYYVGTLDYWGQGTQVTVSS,high polyreactivity
7,QVQLVESGGGLVQAGGSLRLSCAASGRTFRWYAMGWYRQAPGKERELVAAIRSGGRTYYADSVKGRFTISRDNAKNTVYLQMNSLKPEDTAVYYCAALAVTYRYDYWGQGTQVTVSS,high polyreactivity
8,QVQLVESGGGLVQAGGSLRLSCAASGFTFYANAMGWYRQAPGKERELVAAITSSGGSTYYADSVKGRFTISRDNAKNTVYLQMNSLKPEDSAVYYCNSLRLYSIPRLYGYWGQGTQVTVSS,high polyreactivity
9,QVQLLESGGGLVQARGSLRISCAASGLTFFFYAMGWYRQAPGKERELVAAISFSGGSTYADSVKGRFTISRDNAKNTVYLQMNSLKPEDTAVYYCNAPPQFATFTYANWRQGTQVTVSS,low polyreactivity
10,QVQLVESGGGLVQAGGSLRLSCAASGGPFKRNAMGWSRQAPGKERELVAAISTSGATTYYADSVKGRFTISRDTAKNTVYLQMNSLKPEDTAVYYCAARIRGYVYKGMNYWGQGTQVTVSS,high polyreactivity
11,QVQLVESGGGLVQAGGSLRLSCAASGRTIGVYAMGWYRQAPGKERELVAGITTSGDSTYYADSVKGRFTISRDNAKNTVYLQMNSLKPEDTAVYYCNADVLFFYTPTSEYDYWGQGTQVTVSS,low polyreactivity
12,QVQLVESAGGLVQAGGSLRLSCAASGIISRWYAMGWYRQAPGKERELVAAITRGGNTYYADSVKGRFTISRDNAKNTVYLQMNSLKPEDTAVYYCAARTPSRYLYFEYDYWGQGTQVTVSS,low polyreactivity
13,QVQLVESGAGLVQAGGSLRLSCAASGLTFFYYAMGWYRQAPGKERELVAAIDNDGGTYYADSVKGRFTISRDNAKNTVYLLMNSLKPEDTAVYYCNADYQTVDDPYGYDYWGQGTQVTVSS,low polyreactivity
14,QVQLVESGGGLVQAGGSLRLSCAASGSTILYNTMGWYRQAPGKERELVATITSRGDRTYYADSVKGRFTISRDNAKNTVYLQMNSLKPEDTAVDYCAADRTDFWPYDYWGQGTQVTVSS,low polyreactivity
15,QVQLVESGGGLVQAGGSLRLTCAASGSTFDTYAMGWYRQAPGKERELVAAISGSGVRTYYADSVKGRFTISRDNAKNTVYLQMNSLKPEDTAVYYCAARYPRRCGEYGYWGQGTQVTVSS,high polyreactivity
16,QVQLVESGGGLVQAGGSLRLSCAASGSTFYYYAMGWYRQAPGKERELVASISFSGGSTYYADSVKGRFTISRDNAKNTVYLEMNRLKPEDTAVYYCGYYYWGQGTQVTVSS,low polyreactivity
17,QVQLVESGVGLVQAGGSLRLSCAASGSIFWLYAMGWYRQAPGKERELVAAIDSGDSTKYADSVKGRFTISRDTAKNTVYLQMNSLKPEETAVYYSAKDYYYGLEHYGYWGQGTQVTVSS,low polyreactivity
18,QVQLVESGGGLVQAGGSLRLSCAASGRIFYYNVMGWYRQAHGKERELVASISYSSTRTYYADSVKGRFTISRDNAKNTVYLQMNRLKQEDTAVYYCAVDTYAYRGVSYWSERTYYYWGQGTQVNVSS,low polyreactivity
19,QVQLVESGGGLVQAGGSLRLSCAASGFTIPVYVMGWYRQAPGKERELVAAITRTGGRTYYADSVKGRFTISRDNAKNTVYLQMNSLKPEDTAVYYCAAFTHRYGISEFDYWGQGTQVTVSS,high polyreactivity
20,QLQLVESGGGLVQAGGSLRLSCAASGGTFYTNAMGRYRQAPGKEREFVAAISWIGGSTRYADSVKGRFTISRDNAKNTVYLQMNSLKPEDTEVYFCAAEDVFWVGEYYYEMDYWGQGTQVTVSS,high polyreactivity
21,QVQLLESGGGLVQAGGSHRLSCAASGYIFHYNAMGWYIQAPGKERELVAAISYSGGSTYYADSVKGRFTISRDNAKNTVYLQMNSLKPEDTAVYYCAASRRPFPGYYWGQGTQVTVSS,high polyreactivity
22,QVQLVESGGGLVQAGGSLRLSCAASGLIFDPYAMGWYRQAPGKERELVAAITWSGDSTSYADSVKGRFTISRDNAKNTVYLQMNSLKPEDTAVYYCAADGWSRSWGYWVHYGYWGQGTQVTVSS,low polyreactivity

row,Sequence,polyreactivity (PSR sort gate)
1,QVQLVESGGGLVQAGGSLRLSCAASGSTFAYNAMGWYRQAPGKERELVATMSYSGGTTDYADSVKGRFTISRDNAKNTVYLQMNSLKPEDTAVYYCNADHLTWGGWGIRKYDYWGQGTQVTVSS,high polyreactivity
2,QVQLVESGGGLVQAGGSLRLSCPASGSTFGPYAMGWYRQAPGKERELVAAISSTGGSTYYADSVKGRFTISRDNAKNTVYLQMNSLKPEDTAVYYCAAYSTYARGYWGQGTQVTVSS,high polyreactivity
3,HVQLVESGGGLVQAGGSLRLSCAAWSIFYLNAMGWYRQAPGKERELVAAISSAGSTYYADSVKGRFTISRDNAKNTVYLQMNSLKPEDTAVYYCAAYWYDSPGVTEIWYDYWGQGTQVTVSS,low polyreactivity
4,QVQLVESGGGLVQAGGSLRLSCAASGRTYVYTMGWYRQAPGKERELVAAIRYSGGRTYYADSVKGRFTISRDNAMNTVYLQMNSLKPEDTAVYYCAARNYATGVRYDYWGQGTQVTVSS,high polyreactivity
5,QGQLVESGGGLVQAGGSLRLSCAPSGSTVWVNVMGCYSPARGKERELVAAIDSGGSTYYADSVKGRFTISRDKAKNTVYLQMISLKPEDTAVYYCNARVDTPSPYDYWGQGTQVTVSS,low polyreactivity
6,QVQHVESGGGLVQAGGSLRLSCDASGRIFLYKAMGWYRQAPGKERELVAAIDGGGTTYADSVKGRFTISRDNAKNTVYLQRNSLKPEDTAVYYCAADWYYQYSIYRYGYWGQGTQVTVSS,low polyreactivity
7,QVQLVESGGGLVQAGGSLRLSCAASGFTFYSYAMGWYRQAPGKERELVASISQSGGRTYYADSVKGRFTISRDNAKNTVYLQMNSLKPEDTAVYYCARQRSYGRSSYSYGYDYWGQGTKVTVSS,high polyreactivity
8,QVQLVESGGGLVQAGGSLRLSCAASGRTFDAYAMGRYRQAPGKERELVARITSGGSTKYADSVKGRFTISRDNAKNTVYLQMNSLKPEDTAVYYCAAAQYWPSFFSNRVYYRNDYWGQGTQVTVSS,high polyreactivity
9,QVQLVESGGGLVQAGGSLRLSCAASGFTFRKYAMGWYRQAPGKERELVAVINIVGSTYYADSVKGRFTISRDNAKNTVYLQMNSRKPEDTAVYYCAADWSYLLKYYWYGGFNYWGQGTQVTVSS,high polyreactivity
10,QVQIVESGGGLVQAGGSLRLSCAASGSTFAYYTMGWYRQAPGKDRELVAAISASGGSTYYADSVKGRFTISRDNGKNTVYLQMNCLKPEVSEVYYCNAESYLTGWWVDYWGQGSQVTVSS,low polyreactivity
11,QVQLVESGGGLVQAGGSLRLSCAASRSIFGYNAMGWYRPAPGKEREFVAAIRWSSGSTYYADSVKGRFTISRDNAKNTVYLQMNSLKPEDTAVYYCATRQTYLYLGQGTQVTVSS,high polyreactivity
12,QVQLVESVRGLVQAGGSLRLSCAASGFIFRSYAMGWYRQAPGKEREFVAAISRSGGRTYYADSVKGRFTISRDNAKNTVYLQMNCLKPEDTAVYYCAATVGGSYTFDYWGQGTQVTVSS,high polyreactivity
13,QVQRVESGGGLVQARGSLRLSCAASGRIFYRYAMGWNIQAPGKERELVAAISGSVGSTYADSVKGRFTISRDNAKNTVYLQMNSLKPEDTAVYYCARETYRRYGAYDYWGQGTQVSVSS,low polyreactivity
14,QVQLVESGGGLVQAGGSLRISCAASGFIFPWYTMGWYRQAPGKERELVAVINQSGGSTYYADSVKGRFTISRDNAKNTVYLQMNSLKPEDTAVYYCAARLVKQYYYWGQGTQVTVSS,high polyreactivity
15,QVKLVESGGGLVQAGGSLRLSCAASGFTYSANTMGWSRQAPGKERELVAAITRGGRPYYADSVKGRFTISRDNAKNTVYFQMNSLKPEDTAVYYCAKRATWYTVPREGYWGQGTQVTVSS,high polyreactivity
16,QVQLVESGGGLVQAGGSLRLSCAASGRTFLRYAMGWYRQAPGKERELVAAISVSGGNTYYADSVKGRFTISRDNAKNTVYLQMNSLKPEDTAVYYCNKARLAAVFSYPYGYWGQVTQVTVSS,low polyreactivity
17,QVQLVESGGGLVQAGGSLRLSCAASGSIFYIYAMVWYRQAPGKERELVATITRGGSSYADSVKGRFTISRDNAKNTVYFQMNSLIPEDTAVYYCAADVFKYWSQQTSTVYDYWGQGTQVTVSS,high polyreactivity
18,QVQLVESGGGLVQAGGSLRLSCAASGRIGNTMGWYRQAPGKERELVATISSSGGSTYYADSVKGRFTISRDNAKNTVYLQMNSLKPEDTAVYYCAVEYYGYSTSGRYLSPYNYWGQGTQVTVSS,low polyreactivity
19,QVQLVESGGGLVQAGGSLRLSCAASGSTFYLYPMGWLRQAPGKERELVAAIRQSGGSTYYADSVKGRFTISRDNAKNTVYLQMNSLKPEDTAVYYCAARPSYRLGQRYYYWGQGTQVTVSS,high polyreactivity
20,QVQLVESGGGLVQAGGSLRLSCAASGSTVTYNTMGWYIQAPGKERELVAAISSGGSTYYADSVKGRFTISRDNAKNTVYLQMNSLKPEDTAVYYCAAEHYDYPYDYYCGQGTQVTVSS,high polyreactivity
21,QVQLVESGGGLVQAGGSLRLSCAASGRIFYQNAMGWYRQAPGKERELVADISSGGSTYYADSVKGRFTISRDNAKNTVYLQMNSLKPEDTAVYYCAAEGQLFDLYDYWGQGTQVTVSS,low polyreactivity
